Results as given in the supplement of paper PMC10126150.
± gives the standard deviation of the averaged measurements.

Test system: ATP
Experiment: switch fluorescence ratio, 500 uM ATP over buffer (Cy3 cluster intensity, sum of 5 cycles each) (fold (ratio)); higher = stronger signal-on switching upon ATP binding; sequences stand for … in TCGTCGGCAGCGTCAGATGTGTATAAGAGACAGTTTTTTTTTTTTTTTTTTTTTTTTT…TC
Conditions: aptamer strand: ATP DNA aptamer (quencher-CACCTGGGGGAGTATTGCGGAGGAAGG + anchor), 100 nM annealed; ATP concentration: 500 uM
In short: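 For every switch-domain sequence, the fluorescence ratio is the mean of per-cluster values, each being summed target-cycle Cy3 intensity over summed buffer-cycle Cy3 intensity. Clusters outside 100-1000 RFU were excluded. On a modified Illumina MiSeq flow-cell, the Cy3-labelled switching-strand clusters were annealed to 100 nM quencher-labelled ATP aptamer, imaged in selection buffer and then after 15 min with 500 uM ATP at 22 °C. Five such cycles were run, with NaOH stripping and re-annealing between them.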
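Note: ATP exposure 15 min at 22 °C before imaging.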

GGCATTACTA gave a switch fluorescence ratio of 1.21 ± 0.022.
GGCATTAGTT gave a switch fluorescence ratio of 0.992 ± 0.043.
GGCATTGGGT was tested, and the switch fluorescence ratio was 1.0068 ± 0.00028.
GGCCACGTAG gave a switch fluorescence ratio of 1.02 ± 0.022.
Sequence GGCCATATGT has a switch fluorescence ratio of 1.02 ± 0.016.
With GGCCCCGTTT the switch fluorescence ratio was 1.04 ± 0.18.
In the case of GGCCCGGACT, the switch fluorescence ratio is reported as 1.04 ± 0.013.
For GGCCCTGGGA, the switch fluorescence ratio was 1.02 ± 0.029.
GGCCGAAGCG gave a switch fluorescence ratio of 1.07 ± 0.049.
For GGCCGATATG, the switch fluorescence ratio was 0.996 ± 0.015.
GGCCGGCCAG was tested, and the switch fluorescence ratio was 1.01 ± 0.047.
GGCCGTAGCG was tested, and the switch fluorescence ratio was 0.986 ± 0.025.
GGCCGTGTGG was tested, and the switch fluorescence ratio was 0.998 ± 0.023.
GGCCTAGGCT was tested, and the switch fluorescence ratio was 1.02 ± 0.013.
In the case of GGCCTCCGGT, the switch fluorescence ratio is reported as 1.09 ± 0.018.
In the case of GGCCTGGCTA, the switch fluorescence ratio is reported as 0.974 ± 0.02.
GGCCTGGGGG was tested, and the switch fluorescence ratio was 1 ± 0.019.
In the case of GGCCTTGTCG, the switch fluorescence ratio is reported as 1.06 ± 0.046.
GGCCTTGTG was tested, and the switch fluorescence ratio was 0.962 ± 0.035.
GGCCTTTGCT showed a switch fluorescence ratio of 1.02 ± 0.041.
GGCGACAGAG gave a switch fluorescence ratio of 1.04 ± 0.051.
GGCGAGAGGG gave a switch fluorescence ratio of 0.979 ± 0.042.
For GGCGATCACG, the switch fluorescence ratio was 0.9834 ± 0.006.
Sequence GGCGCACTAT has a switch fluorescence ratio of 1.22 ± 0.051.
Sequence GGCGCACTGT has a switch fluorescence ratio of 1.02 ± 0.021.
For GGCGCCATGA, the switch fluorescence ratio was 1.034 ± 0.0036.
GGCGCCATGG was tested, and the switch fluorescence ratio was 0.986 ± 0.055.
GGCGCCTGGG gave a switch fluorescence ratio of 0.9875 ± 0.0033.
In the case of GGCGCGGGGG, the switch fluorescence ratio is reported as 1.03 ± 0.023.
Sequence GGCGCTTGGG has a switch fluorescence ratio of 0.986 ± 0.022.
GGCGCTTTTC gave a switch fluorescence ratio of 1 ± 0.058.
In the case of GGCGGAACTA, the switch fluorescence ratio is reported as 1.01 ± 0.018.
GGCGGAAGTA showed a switch fluorescence ratio of 1 ± 0.019.
GGCGGAGAGA was tested, and the switch fluorescence ratio was 1.03 ± 0.07.
GGCGGAGGGA was tested, and the switch fluorescence ratio was 0.99 ± 0.011.
Sequence GGCGGATAAG has a switch fluorescence ratio of 0.979 ± 0.013.
GGCGGATATG gave a switch fluorescence ratio of 1.009 ± 0.0097.
For GGCGGATCGA, the switch fluorescence ratio was 0.998 ± 0.063.
Sequence GGCGGGGCAC has a switch fluorescence ratio of 0.989 ± 0.038.
Sequence GGCGGGGGGA has a switch fluorescence ratio of 1.01 ± 0.032.
In the case of GGCGGGGGTT, the switch fluorescence ratio is reported as 1.03 ± 0.017.
GGCGGGTCGG was tested, and the switch fluorescence ratio was 0.972 ± 0.029.
For GGCGTAAGTG, the switch fluorescence ratio was 0.953 ± 0.027.
In the case of GGCGTATTGG, the switch fluorescence ratio is reported as 0.988 ± 0.027.
For GGCGTCGACG, the switch fluorescence ratio was 1.02 ± 0.11.
Sequence GGCGTGTGGT has a switch fluorescence ratio of 0.991 ± 0.066.
GGCGTTTTGA was tested, and the switch fluorescence ratio was 1.04 ± 0.021.
For GGCGTTTTGG, the switch fluorescence ratio was 0.982 ± 0.026.
In the case of GGCTAAAATT, the switch fluorescence ratio is reported as 0.999 ± 0.042.
GGCTAAACG showed a switch fluorescence ratio of 1.05 ± 0.011.
GGCTAAGGAT gave a switch fluorescence ratio of 1 ± 0.018.
GGCTAAGGGT was tested, and the switch fluorescence ratio was 0.995 ± 0.013.
With GGCTAGCTAC the switch fluorescence ratio was 1.09 ± 0.012.
For GGCTATCGGT, the switch fluorescence ratio was 0.978 ± 0.035.
GGCTATGGTG gave a switch fluorescence ratio of 1.004 ± 0.01.
In the case of GGCTATTATT, the switch fluorescence ratio is reported as 0.985 ± 0.025.
GGCTATTCCT gave a switch fluorescence ratio of 1.01 ± 0.0012.
GGCTATTTTC gave a switch fluorescence ratio of 0.991 ± 0.051.
GGCTCAACGA showed a switch fluorescence ratio of 1.01 ± 0.045.
For GGCTCAGCGG, the switch fluorescence ratio was 1.03 ± 0.07.
GGCTCAGGCA showed a switch fluorescence ratio of 1.04 ± 0.023.
GGCTCTGCTA gave a switch fluorescence ratio of 1.11 ± 0.047.
With GGCTGAGGCA the switch fluorescence ratio was 1.01 ± 0.029.
Sequence GGCTGATTTG has a switch fluorescence ratio of 0.961 ± 0.027.
In the case of GGCTGGATTT, the switch fluorescence ratio is reported as 0.98525 ± 0.00086.
Work on GGCTGGCCAT yielded a switch fluorescence ratio of 1.01 ± 0.025.
Sequence GGCTGGCGGC has a switch fluorescence ratio of 0.984 ± 0.026.
In the case of GGCTGGGTGG, the switch fluorescence ratio is reported as 1.01 ± 0.053.
GGCTGGGTTT showed a switch fluorescence ratio of 1.02 ± 0.026.
Work on GGCTGGTATA yielded a switch fluorescence ratio of 0.987 ± 0.031.
In the case of GGCTTAGACG, the switch fluorescence ratio is reported as 0.959 ± 0.063.
GGCTTAGAGT showed a switch fluorescence ratio of 0.971 ± 0.011.
Sequence GGCTTAGCAT has a switch fluorescence ratio of 1.02 ± 0.037.
GGCTTCGGGA showed a switch fluorescence ratio of 1.01 ± 0.054.
Work on GGCTTGCGTA yielded a switch fluorescence ratio of 0.9512 ± 0.0029.
For GGCTTGCTTT, the switch fluorescence ratio was 1.01 ± 0.021.
For GGCTTGGTTA, the switch fluorescence ratio was 1.02 ± 0.015.
GGCTTTAGTA gave a switch fluorescence ratio of 1.02 ± 0.027.
Sequence GGCTTTATGG has a switch fluorescence ratio of 0.977 ± 0.024.
GGCTTTGTAG was tested, and the switch fluorescence ratio was 0.9956 ± 0.0081.
GGCTTTTGCT showed a switch fluorescence ratio of 0.9978 ± 0.0038.
Sequence GGCTTTTGTA has a switch fluorescence ratio of 0.972 ± 0.019.
GGGAAAAAGC gave a switch fluorescence ratio of 0.993 ± 0.04.
Work on GGGAAAAGAT yielded a switch fluorescence ratio of 0.978 ± 0.042.
Work on GGGAAAATAT yielded a switch fluorescence ratio of 0.999 ± 0.063.
GGGAAAATTC showed a switch fluorescence ratio of 1.06 ± 0.089.
GGGAAACATG was tested, and the switch fluorescence ratio was 0.979 ± 0.028.
Work on GGGAAACTGA yielded a switch fluorescence ratio of 1.04 ± 0.0027.
GGGAAAGAGG showed a switch fluorescence ratio of 0.991 ± 0.048.
GGGAAAGGCG showed a switch fluorescence ratio of 0.983 ± 0.042.
With GGGAAAGGGA the switch fluorescence ratio was 0.978 ± 0.022.
With GGGAAATAGA the switch fluorescence ratio was 1.004 ± 0.0088.
GGGAAATCAG was tested, and the switch fluorescence ratio was 0.9838 ± 0.0076.
Work on GGGAAATGCG yielded a switch fluorescence ratio of 0.9983 ± 0.0053.
GGGAAATTTT gave a switch fluorescence ratio of 0.987 ± 0.021.
With GGGAACCAAG the switch fluorescence ratio was 0.997 ± 0.026.
With GGGAACGAGG the switch fluorescence ratio was 1.02 ± 0.019.
GGGAACGGGT gave a switch fluorescence ratio of 1 ± 0.035.
For GGGAACGTTA, the switch fluorescence ratio was 1.05 ± 0.035.
GGGAAGAAGT showed a switch fluorescence ratio of 1.011 ± 0.0084.
GGGAAGACGC gave a switch fluorescence ratio of 0.978 ± 0.025.
For GGGAAGAGTT, the switch fluorescence ratio was 0.994 ± 0.012.
For GGGAAGATTT, the switch fluorescence ratio was 0.992 ± 0.036.
In the case of GGGAAGCGTT, the switch fluorescence ratio is reported as 0.997 ± 0.012.
In the case of GGGAAGCTTA, the switch fluorescence ratio is reported as 1.008 ± 0.0042.
GGGAAGGGTT was tested, and the switch fluorescence ratio was 0.998 ± 0.029.
In the case of GGGAATAACG, the switch fluorescence ratio is reported as 0.972 ± 0.058.
Work on GGGAATATTT yielded a switch fluorescence ratio of 0.995 ± 0.0097.
Sequence GGGAATCCGG has a switch fluorescence ratio of 1.02 ± 0.013.
For GGGAATCGTC, the switch fluorescence ratio was 0.987 ± 0.04.
GGGAATGCGG gave a switch fluorescence ratio of 0.99 ± 0.03.
With GGGAATGCTT the switch fluorescence ratio was 1.016 ± 0.0054.
GGGAATGGAG gave a switch fluorescence ratio of 0.976 ± 0.029.
For GGGAATTAGG, the switch fluorescence ratio was 1 ± 0.021.
In the case of GGGACAGGGG, the switch fluorescence ratio is reported as 1.21 ± 0.35.
GGGACATGTA gave a switch fluorescence ratio of 0.98 ± 0.022.
GGGACCAGAT showed a switch fluorescence ratio of 1.01 ± 0.033.
Work on GGGACCGGTG yielded a switch fluorescence ratio of 1.03 ± 0.02.
Work on GGGACGAGGG yielded a switch fluorescence ratio of 1.03 ± 0.035.
GGGACGGGTA showed a switch fluorescence ratio of 1.008 ± 0.0015.
GGGACGTCGT gave a switch fluorescence ratio of 1.04 ± 0.042.
GGGAGAACG was tested, and the switch fluorescence ratio was 0.98 ± 0.017.
Work on GGGAGAGAGG yielded a switch fluorescence ratio of 0.984 ± 0.011.
With GGGAGAGGGA the switch fluorescence ratio was 0.978 ± 0.021.
GGGAGAGGTT was tested, and the switch fluorescence ratio was 0.987 ± 0.032.
In the case of GGGAGAGTTT, the switch fluorescence ratio is reported as 1.01 ± 0.026.
GGGAGCCGAG was tested, and the switch fluorescence ratio was 1 ± 0.03.
In the case of GGGAGGAGGC, the switch fluorescence ratio is reported as 0.889 ± 0.04.
Sequence GGGAGGAGTT has a switch fluorescence ratio of 0.9689 ± 0.0067.
GGGAGGCAAT showed a switch fluorescence ratio of 1.46 ± 0.38.
For GGGAGGGATA, the switch fluorescence ratio was 0.995 ± 0.02.
With GGGAGGGGAA the switch fluorescence ratio was 1.1 ± 0.15.
In the case of GGGAGGTGGT, the switch fluorescence ratio is reported as 1.08 ± 0.17.
Work on GGGAGTAAAT yielded a switch fluorescence ratio of 1.01 ± 0.037.
GGGAGTAGCC was tested, and the switch fluorescence ratio was 1.01 ± 0.059.
GGGAGTATCT showed a switch fluorescence ratio of 0.9998 ± 0.0028.
GGGAGTATGT was tested, and the switch fluorescence ratio was 0.977 ± 0.054.
In the case of GGGAGTGGGA, the switch fluorescence ratio is reported as 1.01 ± 0.011.
GGGAGTGTGC gave a switch fluorescence ratio of 1.016 ± 0.0053.
Sequence GGGAGTTCTA has a switch fluorescence ratio of 0.991 ± 0.023.
GGGATAAAGT gave a switch fluorescence ratio of 0.988 ± 0.022.
With GGGATAAATA the switch fluorescence ratio was 0.9996 ± 0.0023.
In the case of GGGATAAGCT, the switch fluorescence ratio is reported as 1.02 ± 0.022.
For GGGATACAGC, the switch fluorescence ratio was 1.03 ± 0.059.
With GGGATACGGT the switch fluorescence ratio was 1.0248 ± 0.00074.
In the case of GGGATAGACT, the switch fluorescence ratio is reported as 0.995 ± 0.035.
GGGATAGCAC was tested, and the switch fluorescence ratio was 1.09 ± 0.13.
With GGGATAGGAG the switch fluorescence ratio was 1 ± 0.03.
In the case of GGGATATAGG, the switch fluorescence ratio is reported as 0.9937 ± 0.0021.
GGGATATGGT was tested, and the switch fluorescence ratio was 0.986 ± 0.019.
GGGATATTGG was tested, and the switch fluorescence ratio was 0.992 ± 0.013.
For GGGATCAGAA, the switch fluorescence ratio was 0.999 ± 0.074.
GGGATCAGCG gave a switch fluorescence ratio of 0.988 ± 0.041.
